The record followed here is the nanobody polyreactivity screen of Harvey et al. (2022).

A short description of the data set: yeast display, Sf9 membrane polyspecificity reagent, FACS + sequencing; frameworks hold sequencing errors. The method, boiled down:
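A nanobody's polyreactivity label depends on the gate it was sorted from. Yeast display cells were stained with 10% biotinylated, detergent-solubilized Sf9 membrane reagent for 1 hour at 4 °C, enriched on streptavidin microbeads and sorted by FACS. The low and high (top ~1%) gates were set on anti-HA fluorescence for expression and streptavidin fluorescence for reagent binding.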
For the sequence “QVQLVESGGGLVQAGGSLRLSCAASGSIIKPYAMGWYRQAPGKERELVAAIRSSGGRTNYADSVKGRFTISRDNAKNTVYLQMNSLKPEDTAVYYCAKRYYGRKYYYWGQGTHVTVSS”, the “polyreactivity (PSR sort gate)” value is “high polyreactivity”.

For the sequence “QVQLVESGGGLVQAGGSLRLSCAASGSIIKRNAMGWYRQAPGKERELVASISSGGSTKYADSVKGRFTISRDNAKNTVYLQKNSLKPEDTAVSYCAKRSSQTRRAYDYGGQGTQVTVSS”, the “polyreactivity (PSR sort gate)” value is “low polyreactivity”.

Consider “QVQLVESGGGLVQAGGSLRLSCAASGSIILRYAMGWYRQATGKERELVAAISNRGGSTYYADSVKGRFTISRDNAKNTVYLQMNSLKPEDTAVYYCAVRSTNERSAGKRRYYYWGQGTQVTVSS”, for which the “polyreactivity (PSR sort gate)” value is recorded as “high polyreactivity”.

Turning to “QVQLVESGGGLVQAGGSLRLSCAASGSIIQGYVMGWYRQAPGKERELVAAISNSGSSTYYADSVKGRFTISRDNAKNTVYIQMNSLKPEDTAVYYCAVLRSYRGYKYGYWGQGTQVTVSS”, the “polyreactivity (PSR sort gate)” value is recorded as “high polyreactivity”.

Regarding “QVQLVESGGGLVQAGGSLRLSCAASGSIIRAYAMGWYRQAPGKERELVAAITIGDSTYYADSVKGRFTISRDNAKNTVYLQMNSLKPEDTAVYYCAAKSQHLYTRRFNYWGQGTQVTVSS”, the “polyreactivity (PSR sort gate)” value was “low polyreactivity”.

As to “QVQLVESGGGLVQAGGSLRLSCAASGSIIRGNAMGWYSQAPGKERELVATITNGGSTNYADSVKGRFTISRDNAKNTVYFQMNSMKPEDTAVYYCNADHSYHIASTRHVDFWGQGTQVTVSS”, the “polyreactivity (PSR sort gate)” value is “low polyreactivity”.

Consider “QVQLVESGGGLVQAGGSLRLSCAASGSIIRRYAMGWYRQAPGKERELVAAISSNGGSTYYADSVKGRFTISRDNAKNTVYLQMNSLKPEDTAVYYCNKLSSYVVARRTTEYDYWGQGTQVTVSS”, for which the “polyreactivity (PSR sort gate)” value is on record as “high polyreactivity”.

Regarding “QVQLVESGGGLVQAGGSLRLSCAASGSIIRWNAMGWYRQAPGKERELVAAITGGGGNTYYSDSVKGRFTISRDNAKNTVYLQMNSLKPEDTAVYYCNVVYRNYRNDYWGQGTQVTVSS”, the “polyreactivity (PSR sort gate)” value is given as “high polyreactivity”.

With “QVQLVESGGGLVQAGGSLRLSCAASGSIISINAMGWYRQAPGKERELVAAITWSGGSTYYADSVKGRVTISRDNAKNTVYLQMNSLKPEDTAVYYCAAAFWFQRGTGYYTSKFDYWGQGTQVTVSS”, the “polyreactivity (PSR sort gate)” value is listed as “low polyreactivity”.

For “QVQLVESGGGLVQAGGSLRLSCAASGSIITWNAMGWYRQAPGKERELVAAIDWDGGSTYYADSVKGRFTISRDNAKNTVYLQMNSLKPEDSAVYYCAATYGWYTGRYPSGHYYYWGQGTQVTVSS”, the “polyreactivity (PSR sort gate)” value was “low polyreactivity”.

On to “QVQLVESGGGLVQAGGSLRLSCAASGSIITWYTMGWYRQATGKERELVASISSGGTTKYADSVKGRFTISRDNAKNTVYLQMNCLKPEDTAVYYCAAEYIAYYGTGTYYGLDYWGQGTQVTVSS”, for which the “polyreactivity (PSR sort gate)” value is “low polyreactivity”.

As for “QVQLVESGGGLVQAGGSLRLSCAASGSIIVRNAMGWYRQAPGKERELVAAISKSGGSTYYADSVKGRFTISRDNAKNTVYLQMNSLKPEDTAVYYCAVYPRSTLRTFQRDYWGQGTQVTVSS”, the “polyreactivity (PSR sort gate)” value is on record as “high polyreactivity”.

In the case of “QVQLVESGGGLVQAGGSLRLSCAASGSIIVWNAMGWYRQAPGKERELVASITSGASTYYADSVKGRFTISRDNAKNTVYLQMNSLKPEDTAVYFCAAYYGYTDVWYLYSGYNYWGQGTQVTVSS”, the “polyreactivity (PSR sort gate)” value is reported as “low polyreactivity”.

As to “QVQLVESGGGLVQAGGSLRLSCAASGSIIVYNAMGWYRQAPGKERELVAAITGRVGSTYYADSVKGRFTISRDNAKNTVYLQMNSMKPEDTAVYYCAARSYFKWWYAMDYWGQGTQVTVSS”, the “polyreactivity (PSR sort gate)” value is reported as “high polyreactivity”.

For “QVQLVESGGGLVQAGGSLRLSCAASGSIIVYYAMGWYRQAPGKQRELVAANDQSGGSTYYADSVKGRFTISRDNAKNTVYLQMNSLKPEDTAVYYCASVHSLYWLGDDTYGYDYWGQGTQVTVSS”, the “polyreactivity (PSR sort gate)” value is “low polyreactivity”.

In the case of “QVQLVESGGGLVQAGGSLRLSCAASGSIIYLYAMGWYRQAPGKERELVAAISKSGSRTYYADSVKGRFTISRDNAKNTVYLQMNSLKPEDTAVYYCATPYRVYGEGYYWGQGTQVTVSS”, the “polyreactivity (PSR sort gate)” value was “high polyreactivity”.

On to “QVQLVESGGGLVQAGGSLRLSCAASGSIIYLYAMGWYRQAPGKERELVAAITSIGGSTYADSVKGRFTISRDNAKNTVYLQMNSLKPEDTAVYYCNTDEYPLTVQVQYYYWGQGTQVTVSS”, for which the “polyreactivity (PSR sort gate)” value was “low polyreactivity”.

With “QVQLVESGGGLVQAGGSLRLSCAASGSIIYPYVMGWYRQAPGKERELVAAISASGGSTYYADSMKGRFTISRDNAKNTVYLQMNSLKPEDTGVYYCAKYYRFRDDYDYWGQGTQVTVSS”, the “polyreactivity (PSR sort gate)” value is given as “high polyreactivity”.

As for “QVQLVESGGGLVQAGGSLRLSCAASGSIIYQYAMGWYRQAPGKERELVAAITWSGGSTYYADSVKGRFTISRDNAKNTVYLQMNSLKPEDTAVYYCAAYAYGGRINGYRTYRYNYWGQGTQVTVSS”, the “polyreactivity (PSR sort gate)” value is listed as “high polyreactivity”.

Turning to “QVQLVESGGGLVQAGGSLRLSCAASGSILAINAMGWYRQAPGKERELVAAINWSGGSTFYADSVKGRFTISRDNAKNTVYLQMNSLKPEDTAVYYCNVEWTDSERGDYYVDYDYWGQGTQVTVSS”, the “polyreactivity (PSR sort gate)” value is recorded as “low polyreactivity”.

For “QVQLVESGGGLVQAGGSLRLSCAASGSILAYNAMGWYRKAPGKERELVAAIRLSGGSTYYADSVKGRFTISRDNAKNTVYLQMNSLKPEDTAVYYCARRYYRYDTRKYNYWGQGTQVTVSS”, the “polyreactivity (PSR sort gate)” value was “high polyreactivity”.

Turning to “QVQLVESGGGLVQAGGSLRLSCAASGSILDNYGMGWYRQAPGKERELVASISGGAGSPNYADSVKGRFTISRDNAKNTVYLQMYSLKPEVTAVYDCNADQIFGPALNLWKLDYWGQGNQVTVSS”, the “polyreactivity (PSR sort gate)” value is “low polyreactivity”.

“QVQLVESGGGLVQAGGSLRLSCAASGSILDPNAMGWYRQAPGKERELVAAISSSGGSTYYADSVKGRFTISRDNAKNTVYLQMNSLKPEDTAVYYCAADHFIPIYSKYDYWGQGTQVTVSS”: the “polyreactivity (PSR sort gate)” value is reported as “high polyreactivity”.

Regarding “QVQLVESGGGLVQAGGSLRLSCAASGSILDPNAMGWYRQAPGKERELVASISRGDNTYYADSVKGRFRISRDNAKNTVYLQMNSLKPEDTAVYYCAADYSWVVWHDYWGQGTQVTVSS”, the “polyreactivity (PSR sort gate)” value is on record as “low polyreactivity”.

As to “QVQLVESGGGLVQAGGSLRLSCAASGSILDSNAMGWYRQAPGKERELVAAITSGGSTYYADSVKGRFTISRDNAKNTVYLQKNSLKPEDTAVYYCDTPVASVTGYDYWGQGTQVTVSS”, the “polyreactivity (PSR sort gate)” value is recorded as “low polyreactivity”.

With “QVQLVESGGGLVQAGGSLRLSCAASGSILDSNAMGWYRQAPGKERELVAAITSGGSTYYADSVKGRFTISRDNAMNSVYLQMNSLKPEDTAVYYCAAAYLGYGAVQPSYEGGYWGQGTQVTVSS”, the “polyreactivity (PSR sort gate)” value is “low polyreactivity”.

Regarding “QVQLVESGGGLVQAGGSLRLSCAASGSILDYYVMGWYRQAPGKERELVAAIRGGGSTYYADSVKGRFTISRDNEKNTVYLQMNRMKREDTAVNYCAAAVYGSYTTYGYFEHYFWGQGTQVTVSS”, the “polyreactivity (PSR sort gate)” value is on record as “low polyreactivity”.

With “QVQLVESGGGLVQAGGSLRLSCAASGSILEGNGMGWYRQAPGKERELVASITRSGGSTYYSDSVKGRFTISRDNAKNTVYLQMNSLKPEDTAVYYCAAKGSTYGLTIRWYPYLHGYNYWGQGTQVTVSS”, the “polyreactivity (PSR sort gate)” value is “low polyreactivity”.

On to “QVQLVESGGGLVQAGGSLRLSCAASGSILEVYAMGWYRQAPGKERELVAAISDGDSTYYADSVKGRFTISRDNAKNTVYLQMNSLKPEDTAGYYCAAEFVGTLWWYDYWGQGTQVTVSS”, for which the “polyreactivity (PSR sort gate)” value is given as “low polyreactivity”.

Turning to “QVQLVESGGGLVQAGGSLRLSCAASGSILFGYGMGWYRQAPGKERELVATITTSGGTYYADSVKGRFTISRDNAKNTVYLQMNSLKPEDTAVYYCAATAAALDGNTIMYYWGQGTQVTVSS”, the “polyreactivity (PSR sort gate)” value is on record as “low polyreactivity”.

With “QVQLVESGGGLVQAGGSLRLSCAASGSILGDYAMGWYRQAPGKEREFVAAIDGSDGSTYYADSVKGRFTISRDNAKNTVYLQMNSLKPEDTAVYYCNVVRQGKREFDYWGQGTQVTVSS”, the “polyreactivity (PSR sort gate)” value is recorded as “low polyreactivity”.

Take “QVQLVESGGGLVQAGGSLRLSCAASGSILGLYAMGWYRQAPEKERELVAGISSGGNTNYADSVKGRFTISRDNAKNTVYLQMNSLKPEDTAVYYSYDRIYRHYSTYSWTRYDYWGEGTQVTVSS”: the “polyreactivity (PSR sort gate)” value is “high polyreactivity”.

For the sequence “QVQLVESGGGLVQAGGSLRLSCAASGSILGNAMGWYRQAPGKERELVAAISRNGDSTYYADSVKGRFTISRDNAKNTVYLQMNSLKPEDTAVYYCNAQWFFYGYIAGDYWGQGTQVTVSS”, the “polyreactivity (PSR sort gate)” value was “high polyreactivity”.

As to “QVQLVESGGGLVQAGGSLRLSCAASGSILGNYAMGWYRQAPGKEREVVAAISSSGRTSYADSVKGRFTISRDNAKNTVYLQMNSLKPEDTAVYYCNASNYIVLINDPDAAPWLYDYWGQGTQVTVSS”, the “polyreactivity (PSR sort gate)” value is on record as “low polyreactivity”.

For “QVQLVESGGGLVQAGGSLRLSCAASGSILGTYAMGWYRQAPGKERELVAAISSSGRTSYADSVKGRFTISRDNAKNTVYLQMNSLKPEDTAVYYCNASNYIFLINDPDAAPWLYDYWGQGTQVTVSS”, the “polyreactivity (PSR sort gate)” value is listed as “low polyreactivity”.

On to “QVQLVESGGGLVQAGGSLRLSCAASGSILGYYAMGWYRHAPRKERELVASITGNGGSTYYADSVKGRFTISRDNAKNTVYLQMISLKPEDTAVYYCAKRVGPYKLGEYDYWGQGTQVTVSS”, for which the “polyreactivity (PSR sort gate)” value is “high polyreactivity”.

Turning to “QVQLVESGGGLVQAGGSLRLSCAASGSILGYYAMGWYRQAPGKERELVAAITASGGSTYYADSVKGRFTISRDNAKNTVYLQMNSLKPEDTAVYYCAAQYYATYGYWGQGTQVTVSS”, the “polyreactivity (PSR sort gate)” value was “low polyreactivity”.

“QVQLVESGGGLVQAGGSLRLSCAASGSILGYYGMGWYRHAPGKERELVAAISSSCNTNYADSVKGRFTISRDNAKNTVYLQMMSLKPEDTAVYYCAASFQYVAYYLYDYWGQGTQVTVSS”: the “polyreactivity (PSR sort gate)” value is recorded as “low polyreactivity”.

As to “QVQLVESGGGLVQAGGSLRLSCAASGSILIWNTMGWYRQAPGKERELVAAISISGGSTYYADSVKGRFTISRDNAKNTVYLQVNSLKPEDTAVYYCAAEVAYYYYSWGTSGYWGQGTQVTVSS”, the “polyreactivity (PSR sort gate)” value is given as “low polyreactivity”.

Consider “QVQLVESGGGLVQAGGSLRLSCAASGSILIYNAMAWYRQAPGKEMQLVAGISRRGASTYYADSVKGRFTISRDMAKNTVYLPMNSLKPEDTAVYYCAALGKYIVAWSGDYWGQGTQVNVSS”, for which the “polyreactivity (PSR sort gate)” value is recorded as “low polyreactivity”.
